Binding result and Kd data for three molecules are collected here from paper PMC3146575.

The target of series [1] is T1, hOGG1 K249Q (catalytically inactive) (human, UniProt O15527 1-345, K249Q). The series is described as follows: EMSA. Background: In EMSA bound probe runs differently from free probe, usually more slowly.
For series [2], the target named is T1, hOGG1 K249Q (catalytically inactive). The series is described as follows: EMSA. This is another data set of the same source.

T1 sequence (O15527 whole entry K249Q): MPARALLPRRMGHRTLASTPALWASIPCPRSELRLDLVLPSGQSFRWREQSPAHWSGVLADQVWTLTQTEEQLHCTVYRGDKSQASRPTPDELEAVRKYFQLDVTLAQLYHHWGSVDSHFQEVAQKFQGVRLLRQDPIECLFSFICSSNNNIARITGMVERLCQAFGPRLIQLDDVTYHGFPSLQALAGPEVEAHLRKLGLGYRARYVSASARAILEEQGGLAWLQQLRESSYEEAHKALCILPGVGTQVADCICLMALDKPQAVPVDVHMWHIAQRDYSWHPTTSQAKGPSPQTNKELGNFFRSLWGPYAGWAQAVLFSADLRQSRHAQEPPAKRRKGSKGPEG

B1: Loop-HP (structured_DNA)
DNA: CAGCAGCAGCAGCAGCAGCAGCAGCAGCAG
modifications: 8-oxoG in 5th CAG repeat (G15)
As for B1, in series [1], the binding result was “no binding”.

B2: Stem-DUP (dsDNA)
DNA 1: CAGCAGCAGCAGCAGCAGCAGCAGCAGCAG
DNA 2: CTGCTGCTGCTGCTGCTGCTGCTGCTGCTG
modifications: 8-oxoG in 2nd CAG repeat (G6 of strand 1)
On to B2, for which the Kd in series [2] was 21.7 ± 6.8 nM.

B3: Stem-HP (structured_DNA)
DNA: CAGCAGCAGCAGCAGCAGCAGCAGCAGCAG
modifications: 8-oxoG in 2nd CAG repeat (G6)
B3: in series [1], the binding result is “no binding”.

A word on the Kd: it is the free concentration of one partner at which half of the binding sites on the other are occupied at equilibrium, for simple one-to-one binding. Low readings indicate a tighter complex, high ones a looser complex.
